Data from article doi:10.1101/2020.03.08.831909 (2020).

Experiments:
[1] = biological target: OptoMB_(C450V), light-insensitive, His-tagged, purified (Avena sativa, UniProt O49003 408-543, C450V); assay: BLI; dark conformation (C450V)
[2] = biological target: His6-OptoMB_(V416I_G528A_N538E) fused to an N-terminus SUMO tag, purified (Avena sativa, UniProt O49003 408-543, V416I | G528A | N538E); assay: BLI; light conformation (lit-mimetic mutant)

- koff [1]: 0.00753 s⁻¹
- Kd [2]: 21.7 µM
- koff [2]: 0.0489 s⁻¹
B1: YFP-SH2, purified (fusion of yellow fluorescent protein and SH2) (domain or fragment)
chain: SLEKHSWYHGPVSRNAAEYLLSSGINGSFLVRESESSPGQRSISLRYEGRVYHYRINTASDGKLYVSSESRFNTLAELVHHHSTVADGLITTLHYPAPKRNKPTVYGVSPNY
